Laboratory results: patent US11459578B2, “Carbon fixation systems in plants and algae” (NMC, INC., priority 2014, dated 2022)
Entries after “also recorded” stand apart in the source; their conditions may differ.

Tests used:
Assay type in all cases: in vivo
[1] = test system: Camelina; assay: Growth phenotypes and seed recovery of transgenic Camelina
Text: (§1) Previously, reconstitution of a functional inorganic CCM in C3 plants to suppress photorespiration and enhance photosynthesis was proposed. In WO 2012/125737, it was hypothesized that expression of a minimum of three algal CCM proteins would be sufficient to elevate internal plastid CO2 concentrations high enough to suppress photorespiration. These three algal CCM genes included the Chlamydomonas plasma membrane-localized and ATP-dependent bicarbonate transporter, HLA3; the chloroplast envelope localized bicarbonate anion transporter, LCIA; and a chloroplast stromal-localized carbonic anhydrase (HCA-II) to accelerate conversion of bicarbonate into CO2. […] To test this hypothesis, we generated multiple independent transgenic Arabidopsis and Camelina plants expressing each CCM gene as a single gene construct, as well as a stacked 3-gene construct. The expression of each gene was controlled by the light-regulated Cab1 gene promoter.

[2] = test system: Camelina; assay: CO2-dependent photosynthetic rates of transgenic Camelina
Text: FIGS. 5A-5C. Growth phenotypes of WT and LCIA transgenic (T1) Arabidopsis plants four weeks after germination. (B) Four-week-old WT (left 4 plants) and independent transgenic Camelina (right 4 plants) expressing LCIA. (C) CO2-dependent photosynthetic rates of WT and LCIA transgenic Camelina.
We propose that the substantially greater carbon sink-strength of Camelina relative to Arabidopsis accounts for the enhanced growth phenotype observed in Camelina LCIA plants. In support of this hypothesis, we observed that Camelina LCIA transgenics had higher CO2-dependent rates of photosynthesis and lower CO2 compensation points (40 vs. 53 ppm CO2) than WT plants indicative of facilitated inorganic carbon uptake by LCIA (FIG. 5C).

[3] = test system: Arabidopsis; assay: Growth phenotypes of transgenic Arabidopsis
Text: as §1
Finally, we also grew transgenics on ammonium with sucrose which would presumably provide additional ATP via respiration. We hypothesized that growth on nitrate or ammonium with sucrose would provide additional ATP that could potentially drive HLA3 activity.

B1: LCIA: chloroplast envelope localized bicarbonate anion transporter, expressed in transgenic plants (protein, listed as Chlamydomonas reinhardtii)
chain: MQTTMTRPCLAQPVLRSRVLRSPMRVVAASAPTAVTTVVTSNGNGNGHFQAATTPVPPTPAPVAVSAPVRAVSVLTPPQVYENAINVGAYKAGLTPLATFVQGIQAGAYIAFGAFLAISVGGNIPGVAAANPGLAKLLFALVFPVGLSMVTNCGAELFTGNTMMLTCALIEKKATWGQLLKNWSVSYFGNFVGSIAMVAAVVATGCLTTNTLPVQMATLKANLGFTEVLSRSILCNWLVCCAVWSASAATSLPGRILALWPCITAFVAIGLEHSVANMFVIPLGMMLGAEVTWSQFFFNNLIPVTLGNTIAGVLMMAIAYSISFGSLGKSAKPATA
What does the source list for B1?
growth phenotype / viability relative to WT [1]: grew better than WT; also recorded: increased growth rates; CO2-dependent photosynthetic rates relative to WT [2]: higher CO2-dependent photosynthetic rates; CO2 compensation point [2]: 40 ppm CO2; CO2 compensation points relative to WT [2]: reduced CO2 compensation points; higher photosynthetic rates than WT ([2]; ambient CO2 concentrations): up to 25%; growth phenotype relative to WT [3]: substantially impaired in growth; also recorded: severely depressed growth phenotypes
